Laboratory results published in PMC4820838, “Quantifying the dynamics of the oligomeric transcription factor STAT3 by pair correlation of molecular brightness” (Nature Communications, 2016).

Target: the molecule itself
Assay: pair correlation of molecular brightness (pCOMB); pair correlation of brightness fluctuations along a 64-pixel confocal line scan from cytoplasm to nucleus of live HeLa cells; amplitude calibrated against free GFP, YFP or mCherry; cells stimulated with 10 nM oncostatin M for 15 min

B1: STAT3-DB-GFP (natural protein, UniProt P40763 1-770, looked up)
chain: MAQWNQLQQLDTRYLEQLHQLYSDSFPMELRQFLAPWIESQDWAYAASKESHATLVFHNLLGEIDQQYSRFLQESNVLYQHNLRRIKQFLQSRYLEKPMEIARIVARCLWEESRLLQTAATAAQQGGQANHPTAAVVTEKQQMLEQHLQDVRKRVQDLEQKMKVVENLQDDFDFNYKTLKSQGDMQDLNGNNQSVTRQKMQQLEQMLTALDQMRRSIVSELAGLLSAMEYVQKTLTDEELADWKRRQQIACIGGPPNICLDRLENWITSLAESQLQTRQQIKKLEELQQKVSYKGDPIVQHRPMLEERIVELFRNLMKSAFVVERQPCMPMHPDRPLVIKTGVQFTTKVRLLVKFPELNYQLKIKVCIDKDSGDVAALRGSRKFNILGTNTKVMNMEESNNGSLSAEFKHLTLREQRCGNGGRANCDASLIVTAALHLITFETEVYHQGLKIDLETHSLPVVVISNICQMPNAWASILWYNMLTNNPKNVNFFTKPPIGTWDQVAEVLSWQFSSTTKRGLSIEQLTTLAEKLLGPGVNYSGCQITWAKFCKENMAGKGFSFWVWLDNIIDLVKKYILALWNEGYIMGFISKERERAILSTKPPGTFLLRFSESSKEGGVTFTWVEKDISGKTQIQSVEPYTKQQLNNMSFAEIIMGYKIMDATNILVSPLVYLYPDIPKEEAFGKYCRPESQEHPEADPGSAAPYLKTKFICVTPTTCSNTIDLPMSPRTLDSLMQFGNNGEGAEPSAGGQFESLTFDMELTSECATSPM
notes: cloned by Ivan Ng in the laboratory of Marie Bogoyevitch and David Jans; source: HeLa cells, transiently transfected, in live cells
**Q.** How did the “stoichiometry N” value turn out when B1 was run?
**A.** 2
